# According to patent US20240066100A1:
# How the values were obtained:
# [1] = molecular target: human IL-18BP (amino acids 31-194), biotinylated (human) (UniProt O95998); test: yeast display binding; details: ligand
# Target sequence in this assay (O95998 other isoform, or with tags, fused parts or gaps): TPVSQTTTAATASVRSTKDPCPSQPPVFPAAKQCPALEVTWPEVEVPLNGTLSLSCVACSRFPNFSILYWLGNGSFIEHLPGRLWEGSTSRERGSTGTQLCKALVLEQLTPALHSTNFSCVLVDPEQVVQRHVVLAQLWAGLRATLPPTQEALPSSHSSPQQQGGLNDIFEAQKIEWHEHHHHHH
# [2] = molecular target: human IL-18BP (amino acids 31-194), biotinylated (human) (UniProt O95998); test: SPR
# [3] = molecular target: human IL-18BP (amino acids 31-194), biotinylated (human) (UniProt O95998); test: SPR, apparent KD
# Target sequence in this assay (O95998 other isoform, or with tags, fused parts or gaps limits assumed, form in doubt): as the sequence (O95998 other isoform, or with tags, fused parts or gaps) above
# [4] = molecular target: human IL-18BP (amino acids 31-194), biotinylated (human) (UniProt O95998); test: SPR, Biacore T100; hIL-18BP as surface ligand, IL-18 as analyte
# Target sequence in this assay (O95998 other isoform, or with tags, fused parts or gaps limits assumed, form in doubt): as the sequence (O95998 other isoform, or with tags, fused parts or gaps) above
# [5] = molecular target: human IL-18BP (amino acids 31-194), biotinylated (human) (UniProt O95998); test: SPR, Biacore T100; hIL-18BP as surface ligand; Exp 2
# Target sequence in this assay (O95998 other isoform, or with tags, fused parts or gaps limits assumed, form in doubt): as the sequence (O95998 other isoform, or with tags, fused parts or gaps) above
# [6] = molecular target: human IL-18BP (amino acids 31-194), biotinylated (human) (UniProt O95998); test: SPR, Biacore T100; biotinylated receptor on chip, IL-18 as analyte
# Target sequence in this assay (O95998 other isoform, or with tags, fused parts or gaps limits assumed, form in doubt): as the sequence (O95998 other isoform, or with tags, fused parts or gaps) above
# [7] = molecular target: human IL-18BP (amino acids 31-194), biotinylated (human) (UniProt O95998); test: SPR; KD IL-18BP / KD IL-18Rα normalized to WT IL-18
# Target sequence in this assay (O95998 other isoform, or with tags, fused parts or gaps limits assumed, form in doubt): as the sequence (O95998 other isoform, or with tags, fused parts or gaps) above
# [8] = molecular target: human IL-18BP (amino acids 31-194), biotinylated (human) (UniProt O95998); test: SPR, Biacore T100
# Target sequence in this assay (O95998 other isoform, or with tags, fused parts or gaps limits assumed, form in doubt): as the sequence (O95998 other isoform, or with tags, fused parts or gaps) above
# [9] = molecular target: human IL-18BP (amino acids 31-194), biotinylated (human) (UniProt O95998); test: SPR, representative sensorgram, immobilized biotinylated hIL-18BP
# [10] = molecular target: human IL-18BP (amino acids 31-194), biotinylated (human) (UniProt O95998); test: SPR, biotinylated receptor on streptavidin capture chip, IL-18 as free analyte
# [11] = molecular target: human IL-18BP (amino acids 31-194), biotinylated (human) (UniProt O95998); test: SPR, Biacore T100; hIL-18BP as surface ligand; Exp 1
# [12] = molecular target: human IL-18BP (amino acids 31-194), biotinylated (human) (UniProt O95998); test: on-yeast binding isotherm, flow cytometry
# Chain of wild-type human Interleukin-18 (mature form) (Q14116 37-193): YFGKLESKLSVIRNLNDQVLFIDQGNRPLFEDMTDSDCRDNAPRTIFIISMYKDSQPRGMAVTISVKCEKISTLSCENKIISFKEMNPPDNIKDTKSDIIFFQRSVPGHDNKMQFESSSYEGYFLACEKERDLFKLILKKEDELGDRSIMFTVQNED
substance,measurement,setting,value
human decoy-to-the-decoy (D2D) IL-18 consensus variant SEQ ID NO: 123 (from UniProt Q14116 37-193),Kd,[1],5.9 nM
human decoy-to-the-decoy (D2D) IL-18 consensus variant SEQ ID NO: 124 (from UniProt Q14116 37-193),Kd,[1],7.9 nM
human decoy-to-the-decoy (D2D) IL-18 consensus variant SEQ ID NO: 125 (from UniProt Q14116 37-193),Kd,[1],8.9 nM
human decoy-to-the-decoy (D2D) IL-18 variant SEQ ID NO: 94 (from UniProt Q14116 38-193),Kd,[1],6.4 nM
human decoy-to-the-decoy (D2D) IL-18 variant SEQ ID NO: 98 (from UniProt Q14116 38-193),Kd,[1],5.4 nM
human decoy-to-the-decoy (D2D) IL-18 variant SEQ ID NO: 99 (from UniProt Q14116 38-193),Kd,[1],4.8 nM
human decoy-to-the-decoy (D2D) IL-18 variant SEQ ID NO: 101 (from UniProt Q14116 37-193),Kd,[1],8.8 nM
human decoy-to-the-decoy (D2D) IL-18 variant SEQ ID NO: 120 (from UniProt Q14116 37-193),Kd,[1],4.2 nM
wild-type human Interleukin-18 (mature form) (from UniProt Q14116 37-193),Kd,[2]; ligand,0.6 nM
same,Kd,[1],2.1 nM
wild-type human Interleukin-18 (mature form) (from UniProt Q14116 37-193) (ligand),Kd,[3],< 0.1 nM
same,koff,[4],2.23e-07 s⁻¹
same,kon,[4],518000 M⁻¹ s⁻¹
same,Kd,[5],0.43 pM
same,Kd,[6],1.9 pM
same,Kd,[2],0.002 nM
same,IL-18 BP:Rα Dissociation Constant Ratio,[7],1
same,Dissociation Constant Ratio normalized to WT IL-18,[8],1
same,KD ratio IL-18BP/IL-18Rα,[8],0.000648
same,Kd,[9],2 pM
same,Kd,[10],< 1 nM
same,Kd,[11],0.694 pM
same,Dissociation Constant Ratio normalized to WT IL-18,[12],1
same,KD ratio IL-18BP/IL-18Rα,[12],0.295
same,Kd,[12],7.08 nM
